From the nanobody polyreactivity screen of Harvey et al. (2022) come the findings set out here.

A short description of this data set: yeast display, Sf9 membrane polyspecificity reagent, FACS + sequencing; frameworks hold sequencing errors. The essentials: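 A nanobody's polyreactivity label depends on the gate it was sorted from. Yeast display cells were stained with 10% biotinylated, detergent-solubilized Sf9 membrane reagent for 1 hour at 4 °C, enriched on streptavidin microbeads and sorted by FACS. The low and high (top ~1%) gates were set on anti-HA fluorescence for expression and streptavidin fluorescence for reagent binding.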
Regarding “QVQLVESGGGLVQAGGSLRLSCAASGRTFGFNAMGWYRQAPGKARELVAAISSSSSSTYYADSVKGRFTISRDNAKNTVYLQMNSLKPEDTAVYYCAKQEPYPFGGYYEYDYWGQGTQVTVSS”, the “polyreactivity (PSR sort gate)” value is reported as “low polyreactivity”.

Regarding “QVQLVESGGGLVQAGGSLRLSCAASGRTFGFNAMGWYRQAPGKERELVAAISGSGGRTYYADSVKGRFTISRDNAKNTVYLQMNSLKPEDTAVYYCAAGARRGGSGYWGQGTQVTVSS”, the “polyreactivity (PSR sort gate)” value is listed as “high polyreactivity”.

With “QVQLVESGGGLVQAGGSLRLSCAASGRTFGFNAMGWYRQAPGKERELVATITTGGSTNYADSVKGRFTISRDNAKNTVYLQMNSLKPEDTAVYYCATDGWFRSGYKYFTHFYFWGQGTQVTVSS”, the “polyreactivity (PSR sort gate)” value is given as “high polyreactivity”.

In the case of “QVQLVESGGGLVQAGGSLRLSCAASGRTFGFNVMGCSRQAPGKERELVAAISWSGGSTYYADSVKGRFTISRDNAKNTVYLQLNSLKPEDTAVYYCNKRDDHRYGYWGQGTQVTVSS”, the “polyreactivity (PSR sort gate)” value is given as “low polyreactivity”.

As to “QVQLVESGGGLVQAGGSLRLSCAASGRTFGFNVMGWYRQAPGKEREFVAAITRSGGSTYYADSVKGRFTISRDIAKNTVYLQMNSLKPEDTAVYSCAAYKFSARYYYWGQGTQVTVSS”, the “polyreactivity (PSR sort gate)” value is “high polyreactivity”.

Take “QVQLVESGGGLVQAGGSLRLSCAASGRTFGFYAMGWYRQAPGKEREFVAAIYKSGGSTYYADSVKGRFTISRDIANNTVYLQMISLKPEDTAVYYCIKKVGSYYRSYYYWGQGTQVTVSS”: the “polyreactivity (PSR sort gate)” value is recorded as “high polyreactivity”.

Turning to “QVQLVESGGGLVQAGGSLRLSCAASGRTFGFYAMGWYRQAPGKERELVAAITSSGGRTYYADSVKGRFTISRDNAKNTVYLQMNSLKPEDTAVYYCATSGRGKYIRYGYWGQGTQVTVSS”, the “polyreactivity (PSR sort gate)” value is recorded as “high polyreactivity”.

Consider “QVQLVESGGGLVQAGGSLRLSCAASGRTFGFYAMGWYRQAPGKERELVASITWRRGRTYYADSVKGRFTISRDNAKNTLYLQMNSLNPEDTAVYYCAAVTFSYDGYDYWGQGTQVTVSS”, for which the “polyreactivity (PSR sort gate)” value is on record as “low polyreactivity”.

“QVQLVESGGGLVQAGGSLRLSCAASGRTFGGNAMGWYRQAPGKEWELVAAIDQSGGSTYYADSVKGRFTISRDNAKNTVYLQMISLKPEDTAVYYCARKTYSYFGHYYFWGQGTQVTVSS”: the “polyreactivity (PSR sort gate)” value is “low polyreactivity”.

“QVQLVESGGGLVQAGGSLRLSCAASGRTFGGNTMGWYRQAPGKERELVAAISFSGGSTYYADSVKGRFTISRDNAKNTVYLQMNSLKPEDTAVYYCAKDPITATTLDERVYYWGQGTQVTVSS”: the “polyreactivity (PSR sort gate)” value is “low polyreactivity”.

As to “QVQLVESGGGLVQAGGSLRLSCAASGRTFGGNVRGWYRQAPGKERELVAAISYSGGSTHYADSVKGRFTISRDNAKNTVYLQMMSLIPEDTAVYYCNKPFPYYPDGPNGYDYWGQGTQVTVSS”, the “polyreactivity (PSR sort gate)” value is reported as “low polyreactivity”.

On to “QVQLVESGGGLVQAGGSLRLSCAASGRTFGGYAMGSYRQAPGKERELVAAISRSGGRTYYADSVKGRFTISRDNAKNTVYLQMNSLKPEDSAVYYWADRLYVGPTAMDYWGEGTQVTVSS”, for which the “polyreactivity (PSR sort gate)” value is reported as “high polyreactivity”.

For “QVQLVESGGGLVQAGGSLRLSCAASGRTFGHNAMGWYRQAPGKEREFVAAITYSGVRTFYADSVKGRFTISRDNAKNTVYLQMNSLKPEDTAVYYCATDWRRDYDYWGQGTQVTVSS”, the “polyreactivity (PSR sort gate)” value is “low polyreactivity”.

In the case of “QVQLVESGGGLVQAGGSLRLSCAASGRTFGHYAMGWYRQAPGKERELVAAITSRGGSTNYADSVKGRFTISRDNAKKTDYLQMNSLKPEDTAVYYCAARLSPEEGYWGQGTQVTVSS”, the “polyreactivity (PSR sort gate)” value is “high polyreactivity”.

“QVQLVESGGGLVQAGGSLRLSCAASGRTFGINAMGWYRQAPGKERELVAVISFGEGGTYYADSVKGRFTISRDNAKNTVYLQMNSLKPEDTAVYYCATDYQSTSVWGGHFVINPYDYWGLGTQVTVSS”: the “polyreactivity (PSR sort gate)” value was “low polyreactivity”.

Turning to “QVQLVESGGGLVQAGGSLRLSCAASGRTFGINDMGWYRQAPGKERELVAVIRSGGGITFYADSVKGRFTISRDNAKNTVYLQMTSLKPEDTAVYYCAKTRRDFYDAINGGGPERYDYWGQGTQVTVSS”, the “polyreactivity (PSR sort gate)” value is reported as “low polyreactivity”.

With “QVQLVESGGGLVQAGGSLRLSCAASGRTFGIYAMGWYRQAPGKEREFVAAISWSGTSTHYADSVKGRFTISRDNAKNTVYLQMNSLKPEDTAVYYCNADSRTYRYYWSYGYWGQGTQVTVSS”, the “polyreactivity (PSR sort gate)” value is given as “high polyreactivity”.

On to “QVQLVESGGGLVQAGGSLRLSCAASGRTFGIYAMGWYRQAPGKERELVAAIRWRDGSTYYADSVKGRFTISRDNAKNTVYLQMNSLKPEDTAVYYCAATSRVYVRGSYWKYGYWGQGTQVTVSS”, for which the “polyreactivity (PSR sort gate)” value is “high polyreactivity”.

Turning to “QVQLVESGGGLVQAGGSLRLSCAASGRTFGKNAMGWYRQAPGKERELVAAIRYRTGSTYYADSVKGRFTISRDNAKNTVYLQMNSLKPEDTAVYYCAKVGSSPLYWGQGTQVTVSS”, the “polyreactivity (PSR sort gate)” value is listed as “high polyreactivity”.

Regarding “QVQLVESGGGLVQAGGSLRLSCAASGRTFGKNAMGWYRQAPGKEREYVAAITSRGGSTYYADSVKGRFTISRDNAKNTVYLKMYSLKPDDTAFYFCNREYKRPSQRTEHYYWGQGTQVTVSS”, the “polyreactivity (PSR sort gate)” value is on record as “low polyreactivity”.

As to “QVQLVESGGGLVQAGGSLRLSCAASGRTFGKYAMGWYRQAPGKEREFVAAISRSGGNTYYADSVKGRFTISRDNAKNTVYLQMNSLKPEDTAVYYCAAKGFFYYWGQGTQVTVSS”, the “polyreactivity (PSR sort gate)” value was “high polyreactivity”.

Regarding “QVQLVESGGGLVQAGGSLRLSCAASGRTFGKYAMGWYRQAPGKERELVAAITNSGGSTYYADSVKGRFTISRDNAKNTVYLQMNSLKPEDTAVYYCNRLGYRGTSKLNHMGYWGQGTQVTVSS”, the “polyreactivity (PSR sort gate)” value was “high polyreactivity”.

“QVQLVESGGGLVQAGGSLRLSCAASGRTFGLNAMGWYRQAPGKERELVAAISSSGGSTYYADSVKGRFTISRDNAKNTVYLQMNSLKPEDTAVYYSAKVLYLYGTAYYYWGQGTEVTVSS”: the “polyreactivity (PSR sort gate)” value was “high polyreactivity”.

Regarding “QVQLVESGGGLVQAGGSLRLSCAASGRTFGLYAMGWYRQAPGKERELVAAIDQSTGSTYYADSVKGRFTISRDNAKNTVYLQMNSLKPEDTAVYYCAAEEASTVRYYWYDYWGQVTQVTVSS”, the “polyreactivity (PSR sort gate)” value is listed as “high polyreactivity”.

On to “QVQLVESGGGLVQAGGSLRLSCAASGRTFGLYAMGWYRQAPGKERELVAAISRSGGRTYYADSVKGRFTISRDNAKNTVYLQMNSLKPEDTAVYYCSTYYDRASYRYDYWGQGTQETVSS”, for which the “polyreactivity (PSR sort gate)” value is “high polyreactivity”.

As for “QVQLVESGGGLVQAGGSLRLSCAASGRTFGLYAMGWYRQAPGKERELVAAISSGVSTNYADSVKGRFTISRDNAKNTVYLQMNSLKPEDTAVYYCAAKNYYPRVNYWGQGTQVTVSS”, the “polyreactivity (PSR sort gate)” value is on record as “high polyreactivity”.

Turning to “QVQLVESGGGLVQAGGSLRLSCAASGRTFGLYAMGWYRQAPGKERELVATITTSDIITYYADSVKGRFTISRDNAKNSVYLQMNSLKPEDTAVYYCASGGYDDFSSRPANDYWGQGTQVTVSS”, the “polyreactivity (PSR sort gate)” value was “low polyreactivity”.

As for “QVQLVESGGGLVQAGGSLRLSCAASGRTFGNYVMGWYRQAPGKERELVAAIRSGTNTYYADSVKGRFTISLDNAKNTVYLQMNSLKPEVTAVYYCNKYVRTTDYDYWGQGIQVTVSS”, the “polyreactivity (PSR sort gate)” value is recorded as “high polyreactivity”.

On to “QVQLVESGGGLVQAGGSLRLSCAASGRTFGPNAMGWYRQAPGKERELVAGISWRGTSTYYADSVKGRFTISRDNAKNTVYLQMNSLKPEDTAVYYCAKSVYGYGTLYDHWGQGTQVTVSS”, for which the “polyreactivity (PSR sort gate)” value is recorded as “high polyreactivity”.

Consider “QVQLVESGGGLVQAGGSLRLSCAASGRTFGPNVMGWYIQAPRKERELVAAITSGGTTYYADSVKGRFTISRDNANNTVYLLMNSLKPEDTAVYYCAKVLRGGRYDYWGQGTQVTVSS”, for which the “polyreactivity (PSR sort gate)” value was “low polyreactivity”.

On to “QVQLVESGGGLVQAGGSLRLSCAASGRTFGPYAMGWYRQAPGKDSDLVATISWNGGSTYYADSVKGRFTISRDYAKNSVYLQMNSLKPEDTAVYYCAARHWSQSWKYGYWGQGTQVTVSS”, for which the “polyreactivity (PSR sort gate)” value is listed as “high polyreactivity”.

For the sequence “QVQLVESGGGLVQAGGSLRLSCAASGRTFGPYAMGWYRQAPGKERELVAAISRSGGRTYYADSVKGRFTISRDNAKNTVYLQMNSLKPEDTAVYYCAARYYSEPNAYYYWGQGTQVTVSS”, the “polyreactivity (PSR sort gate)” value was “high polyreactivity”.

Turning to “QVQLVESGGGLVQAGGSLRLSCAASGRTFGQYAMGWSRQAPGKERELVAAISARGASTYYADSVKGRFTISRDTAKNTVYLQMNSLKPEDTAVYYCNKYGRTSSTPLFYYWGQGTQVTVSS”, the “polyreactivity (PSR sort gate)” value is reported as “high polyreactivity”.

“QVQLVESGGGLVQAGGSLRLSCAASGRTFGQYAMGWYRQAPGKERQLVAAISTRGGSTYYADSVKGRFTISRDNAKNTVYLQMNSLKPEDTAVYYCAARPGWFAGYEYWGQGTQVTVSS”: the “polyreactivity (PSR sort gate)” value is “low polyreactivity”.

On to “QVQLVESGGGLVQAGGSLRLSCAASGRTFGRKAMGWYRQAPGKERELVAAIARSGASTYYADSVKGRFTISRDNAKNTVYLQMNSLNPEDTAVYYCAKDVWGSRYAYDYWGQGTQVTVSS”, for which the “polyreactivity (PSR sort gate)” value was “low polyreactivity”.

With “QVQLVESGGGLVQAGGSLRLSCAASGRTFGRNAMGWYRQAPGKEREFVAAISRRGDTTYYADSVKGRFTISRDNAKNTVYLQMNSLKPEDTAVYYCNADVIKDRFSWYYYWGQGTQVTVSS”, the “polyreactivity (PSR sort gate)” value is reported as “low polyreactivity”.

Take “QVQLVESGGGLVQAGGSLRLSCAASGRTFGRNAMGWYRQATGKERELVAAISRSGASTYYADSVKGRFTISRDNAKNTVYLQMNSLKPEDTAVYYCAKDVWGSRYAYDYWGQGTQVTVSS”: the “polyreactivity (PSR sort gate)” value is recorded as “low polyreactivity”.

For “QVQLVESGGGLVQAGGSLRLSCAASGRTFGRYAMGWYRQAPGKEREFVAAIRSHGVSTYYADSVKGRFTISRDNAKNTVYLQMNSLKPEDTAVYYCAKPSTSYYQRGDYWGQGTQVTVSS”, the “polyreactivity (PSR sort gate)” value is given as “high polyreactivity”.

With “QVQLVESGGGLVQAGGSLRLSCAASGRTFGRYAMGWYRQAPGKERELVAAISWSGGSTNYADSVKGRFTISRDNAKNTVYLQMISLKPEDTAVYYCAAVTTDGVYAFDYWGQGTQVTVSS”, the “polyreactivity (PSR sort gate)” value is reported as “low polyreactivity”.

For the sequence “QVQLVESGGGLVQAGGSLRLSCAASGRTFGRYAMGWYRQAPGKERELVAAISWTGGRTYYADSVKGRFTISRDNAKNTVYLQMNRLKPEDTAVYYCAALYDRNPAASRGYDSWGQGTQVTVSS”, the “polyreactivity (PSR sort gate)” value is “high polyreactivity”.

Take “QVQLVESGGGLVQAGGSLRLSCAASGRTFGRYAMGWYRQAPGKERELVATITSGGSTNYADSVKGRFTISRDNAKNTVYLQMNSLKPEDTAVYYCAAEFSPSRWAYSEGALRYNYWGQGTQVNVSS”: the “polyreactivity (PSR sort gate)” value is “low polyreactivity”.
